One assay addresses T1, hFZD1 CRD-Fc (human, UniProt Q9UP38 70-250, limits assumed).
T1 construct: domain: CRD; bought (R&D Systems); not shown: Fc part
Kind of assay: fluorescence titration, 50 nM labelled peptide vs FZD CRD-Fc dilutions (Monolith NT.115).

Assay [1] has as its target T2, mFZD2 CRD-Fc (mouse, UniProt Q9JIP6 29-178, limits assumed).
T2 construct: domain: CRD; bought (R&D Systems); not shown: Fc part
The description is as above.

The target of assay [2] is T3, mFZD7 CRD-Fc (mouse, UniProt Q61090 33-185). The description is as above.
Assay [3] addresses T4, hFZD7 CRD-Fc (human, UniProt O75084 33-185). The assay is described as above.
A further assay deals with T5, hsFRP-5 (human, UniProt Q5T4F7 30-317).
T5 construct: bought (R&D Systems); also called human sFRP5
T5 sequence (looked up): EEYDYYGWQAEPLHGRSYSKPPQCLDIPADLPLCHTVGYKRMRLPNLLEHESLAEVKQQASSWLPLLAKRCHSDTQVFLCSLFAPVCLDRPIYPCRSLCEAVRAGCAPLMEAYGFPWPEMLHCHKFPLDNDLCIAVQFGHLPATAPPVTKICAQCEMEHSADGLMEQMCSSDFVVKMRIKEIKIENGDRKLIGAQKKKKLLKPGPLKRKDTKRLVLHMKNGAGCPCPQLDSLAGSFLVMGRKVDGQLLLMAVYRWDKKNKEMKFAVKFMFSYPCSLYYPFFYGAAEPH
Kind of assay: fluorescence size-exclusion chromatography (FSEC). (In general: SEC sorts molecules by how far they enter the pores of the column.)

The next assay has as its target T6, hsFRP1 (human, UniProt Q8N474 32-314).
T6 construct: bought (R&D Systems); also called human sFRP1
T6 sequence (looked up): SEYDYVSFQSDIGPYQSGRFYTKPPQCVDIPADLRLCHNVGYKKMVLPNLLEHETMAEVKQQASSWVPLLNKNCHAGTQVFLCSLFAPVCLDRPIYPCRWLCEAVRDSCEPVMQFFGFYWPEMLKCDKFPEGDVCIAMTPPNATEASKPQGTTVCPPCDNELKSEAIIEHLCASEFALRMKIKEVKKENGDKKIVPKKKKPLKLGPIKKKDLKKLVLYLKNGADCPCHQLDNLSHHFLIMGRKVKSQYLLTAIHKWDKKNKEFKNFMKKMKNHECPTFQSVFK
Description: fluorescence size-exclusion chromatography (FSEC).

The target in another assay is T7, hsFRP2 (human, UniProt Q96HF1 25-295).
T7 construct: bought (R&D Systems); also called human sFRP2
T7 sequence (looked up): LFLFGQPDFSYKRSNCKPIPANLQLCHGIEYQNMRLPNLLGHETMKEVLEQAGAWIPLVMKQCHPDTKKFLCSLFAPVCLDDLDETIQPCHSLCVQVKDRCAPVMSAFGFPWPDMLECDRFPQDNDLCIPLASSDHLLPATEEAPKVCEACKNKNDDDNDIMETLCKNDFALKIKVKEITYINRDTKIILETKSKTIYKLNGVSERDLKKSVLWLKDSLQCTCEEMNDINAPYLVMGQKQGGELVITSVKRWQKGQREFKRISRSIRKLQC
Kind of assay: fluorescence size-exclusion chromatography (FSEC).

In a further assay the target is T8, hsFRP-4 (human, UniProt Q6FHJ7 22-346, limits assumed).
T8 construct: bought (R&D Systems); also called human sFRP4
T8 sequence (looked up): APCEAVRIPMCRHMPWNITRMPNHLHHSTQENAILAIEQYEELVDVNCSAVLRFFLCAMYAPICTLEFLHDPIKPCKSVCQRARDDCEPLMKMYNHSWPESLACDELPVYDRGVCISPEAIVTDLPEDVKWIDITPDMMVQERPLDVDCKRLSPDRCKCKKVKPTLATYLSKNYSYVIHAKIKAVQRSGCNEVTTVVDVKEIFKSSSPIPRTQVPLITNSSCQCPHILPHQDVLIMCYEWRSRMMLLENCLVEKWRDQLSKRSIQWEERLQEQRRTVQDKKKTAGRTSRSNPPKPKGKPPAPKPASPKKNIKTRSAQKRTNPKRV
Description: fluorescence size-exclusion chromatography (FSEC).

In a further assay the target is T9, hsFRP-3 (human, UniProt Q92765 33-325).
T9 construct: bought (R&D Systems); also called human sFRP3
T9 sequence (looked up): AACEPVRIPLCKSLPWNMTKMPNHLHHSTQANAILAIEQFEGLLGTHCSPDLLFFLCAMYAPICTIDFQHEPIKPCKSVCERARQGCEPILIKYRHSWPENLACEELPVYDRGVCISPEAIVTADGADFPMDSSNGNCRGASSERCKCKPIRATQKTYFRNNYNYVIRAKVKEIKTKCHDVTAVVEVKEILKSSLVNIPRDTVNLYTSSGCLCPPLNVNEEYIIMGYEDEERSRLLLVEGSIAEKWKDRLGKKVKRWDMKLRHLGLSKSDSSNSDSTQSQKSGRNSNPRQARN
Description: fluorescence size-exclusion chromatography (FSEC).

The target in the next assay is T10, hFZD4 CRD-Fc (human, UniProt Q9ULV1 37-180, limits assumed).
T10 construct: domain: CRD; bought (R&D Systems); not shown: Fc part
T10 sequence (looked up): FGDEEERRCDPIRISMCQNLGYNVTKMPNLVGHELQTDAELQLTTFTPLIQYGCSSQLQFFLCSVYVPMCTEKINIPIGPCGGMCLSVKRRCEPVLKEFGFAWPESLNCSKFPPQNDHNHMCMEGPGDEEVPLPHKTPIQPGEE
Description: fluorescence titration, 50 nM labelled peptide vs FZD CRD-Fc dilutions (Monolith NT.115); NC = no change.

A further assay concerns the target T11, mFZD9 CRD-Fc (mouse, UniProt Q9R216 24-176, limits assumed).
T11 construct: domain: CRD; bought (R&D Systems); not shown: Fc part
T11 sequence (looked up): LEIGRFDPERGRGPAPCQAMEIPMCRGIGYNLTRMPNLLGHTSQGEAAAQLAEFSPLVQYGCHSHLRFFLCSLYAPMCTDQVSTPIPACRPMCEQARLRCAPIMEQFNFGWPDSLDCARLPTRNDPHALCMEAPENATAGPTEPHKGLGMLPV
Described as above.

For another assay, the target named is T12, hFZD8 CRD-Fc (human, UniProt Q9H461 28-158, limits assumed).
T12 construct: domain: CRD; bought (R&D Systems); not shown: Fc part
T12 sequence (looked up): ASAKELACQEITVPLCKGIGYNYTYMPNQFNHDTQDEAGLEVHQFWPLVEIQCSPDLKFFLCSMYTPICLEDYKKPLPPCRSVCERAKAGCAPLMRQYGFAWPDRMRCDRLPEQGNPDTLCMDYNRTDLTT
The description is as above.

The target of the next assay is T13, hFZD5 CRD-Fc (human, UniProt Q13467 27-167, limits assumed).
T13 construct: domain: CRD; bought (R&D Systems); not shown: Fc part
T13 sequence (looked up): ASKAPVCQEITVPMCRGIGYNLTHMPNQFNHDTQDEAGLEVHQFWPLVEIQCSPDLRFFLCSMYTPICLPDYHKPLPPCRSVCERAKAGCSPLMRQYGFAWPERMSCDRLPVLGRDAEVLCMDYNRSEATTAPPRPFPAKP
Described as above.

A further assay has as its target T14, hFZD10 CRD-Fc (human, UniProt Q9ULW2 21-161, limits assumed).
T14 construct: domain: CRD; bought (R&D Systems); not shown: Fc part
T14 sequence (looked up): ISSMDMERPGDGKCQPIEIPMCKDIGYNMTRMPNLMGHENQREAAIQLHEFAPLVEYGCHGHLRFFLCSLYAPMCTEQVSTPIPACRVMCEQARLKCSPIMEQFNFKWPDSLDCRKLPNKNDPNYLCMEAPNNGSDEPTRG
The description is as above.

Assay [4] concerns the target T2, mFZD2 CRD-Fc. Described as above.
Assay [5] addresses T3, mFZD7 CRD-Fc. The description is as above.
Assay [6] has as its target T4, hFZD7 CRD-Fc. Described as above.

Ends that are not written are not given here.

The term EC50 denotes the concentration needed to bring the measured effect to its halfway point. A higher EC50 goes with lower potency in that assay.

T1 sequence (Q9UP38 70-250 limits assumed): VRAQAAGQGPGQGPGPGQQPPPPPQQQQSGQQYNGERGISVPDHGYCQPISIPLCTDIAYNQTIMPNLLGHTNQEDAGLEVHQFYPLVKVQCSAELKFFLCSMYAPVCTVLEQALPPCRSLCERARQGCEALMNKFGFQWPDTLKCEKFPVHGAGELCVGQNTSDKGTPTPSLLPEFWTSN

B1: 5FAM-Fz7-21 (peptide)
peptide: LPSDDLEFWCHVMY-NH2
modifications: also: 5-carboxyfluorescein (5FAM) label, site not given here
notes: synthetic
As for B1, the EC50 came out at 39 nM in the assay with hFZD1 CRD-Fc, 60 nM in the assay with mFZD2 CRD-Fc [1], 67 nM with mFZD7 CRD-Fc [2] and 116 nM with hFZD7 CRD-Fc [3]. Further, the binding result with hsFRP-5 is “no binding (tested: 10 µM peptide, ~250 nM sFRP)”; with hsFRP1 it was “no binding (tested: 10 µM peptide, ~250 nM sFRP)”; with hsFRP2, “no binding (tested: 10 µM peptide, ~250 nM sFRP)”; with hsFRP-4, “no binding (tested: 10 µM peptide, ~250 nM sFRP)”; with hsFRP-3, “no binding (tested: 10 µM peptide, ~250 nM sFRP)”; with hFZD4 CRD-Fc, “no binding”. In addition, the binding result with mFZD9 CRD-Fc, in the assay with hFZD8 CRD-Fc, with hFZD5 CRD-Fc and with hFZD10 CRD-Fc was “no binding” in each case.

B2: 5FAM-Fz7-21S (peptide)
peptide: LPSDDLEFWSHVMY-NH2
modifications: also: 5-carboxyfluorescein (5FAM) label, site not given here
notes: synthetic control peptide (C10S)
In the case of B2, the binding result is on record as “no binding (tested: 10 µM peptide, ~250 nM sFRP)” with hsFRP-5; “no binding (tested: 10 µM peptide, ~250 nM sFRP)” with hsFRP1; “no binding (tested: 10 µM peptide, ~250 nM sFRP)” in the assay with hsFRP2; “no binding (tested: 10 µM peptide, ~250 nM sFRP)” with hsFRP-4; “no binding (tested: 10 µM peptide, ~250 nM sFRP)” with hsFRP-3; “no binding” with hFZD4 CRD-Fc. The binding result in the assay with mFZD2 CRD-Fc [4], in the assay with mFZD9 CRD-Fc, with mFZD7 CRD-Fc [5], with hFZD8 CRD-Fc, with hFZD5 CRD-Fc and in the assay with hFZD7 CRD-Fc [6] was “no binding” in each case. In addition, in the assay with hFZD10 CRD-Fc, the binding result was “no binding”.

The values above are taken from patent publication US20190359653A1 (Genentech, published 2019).
